{"source": "patent US20100144822", "system": "Argyrin A"}
{"substance": "purified human erythrocyte derived 20S proteasome", "values": [{"measurement": "activity of the caspase-, chymotrypsin- and trypsin-like proteasome activities (fluorogenic peptide substrates)", "value": "incubation of purified human 20S proteasome with Argyrin A led to a dose dependent inhibition of the caspase, trypsin and chymotrypsin like proteasome activities"}]}
